Data: patent US20250179142A1 (SUNSHINE LAKE PHARMA, published 2025)
Numbering of substitutions follows the chain as printed. In names and notes the source's numbering stands.

B1: IgG4 Fc (AA, K439E) (other)
chain: EAAGGPSVFLFPPKPKDTLMISRTPEVTCVVVDVSQEDPEVQFNWYVDGVEVHNAKTKPREEQFNSTYRVVSVLTVLHQDWLNGKEYKCKVSNKGLPSSIEKTISKAKGQPREPQVYTLPPSQEEMTKNQVSLTCLVKGFYPSDIAVEWESNGQPENNYKTTPPVLDSDGSFFLYSRLTVDKSRWQEGNVFSCSVMHEALHNHYTQESLSLSLG
B2: IgG4 Fc (AA, K439D) (other)
chain: B1 chain with E207D
B3: IgG4 Fc (AA, F405Q/Y407E) (other)
chain: B1 chain with F173Q, Y175E, E207K
B4: GLP-1-Fc-GDF15 fusion protein D8 (Fc fusion)
chain: HGEGTFTSDVSSYLEEQAAKEFIAWLVKGGGGGGGSGGGGSGGGGSAPEAAGGPSVFLFPPKPKDTLMISRTPEVTCVVVDVSQEDPEVQFNWYVDGVEVHNAKTKPREEQFNSTYRVVSVLTVLHQDWLNGKEYKCKVSNKGLPSSIEKTISKAKGQPREPQVYTLPPSQEEMTKNQVSLTCLVKGFYPSDIAVEWESNGQPENNYKTTPPVLDSDGSFFLYSRLTVDKSRWQEGNVFSCSVMHEALHNHYTQESLSLSLGGGGGSGGGGSAPAPAPAPAPAPAPAPAPAPGGGGSGGGGSDHCPLGPGRCCRLHTVRASLEDLGWADWVLSPREVQVTMCIGACPSQFRAANMHAQIKTSLHRLKPDTVPAPCCVPASYNPMVLIQKTDTGVSLQTYDDLLAKDCHCI
B5: GLP-1-Fc-GDF15 fusion protein D9 (Fc fusion)
chain: B4 chain with E255Q
B6: GLP-1-Fc-GDF15 fusion protein D11 (Fc fusion)
chain: HGEGTFTSDVSSYLEEQAAKEFIAWLVKGGGGGGGSGGGGSGGGGSEAAGGPSVFLFPPKPKDTLMISRTPEVTCVVVDVSQEDPEVQFNWYVDGVEVHNAKTKPREEQFNSTYRVVSVLTVLHQDWLNGKEYKCKVSNKGLPSSIEKTISKAKGQPREPQVYTLPPSQEEMTKNQVSLTCLVKGFYPSDIAVEWESNGQPENNYKTTPPVLDSDGSFFLYSRLTVDKSRWQEGNVFSCSVMHEALHNHYTQESLSLSLGGGGGSGGGGSAPAPAPAPAPAPAPAPAPAPGGGGSGGGGSDHCPLGPGRCCRLHTVRASLEDLGWADWVLSPREVQVTMCIGACPSQFRAANMHAQIKTSLHRLKPDTVPAPCCVPASYNPMVLIQKTDTGVSLQTYDDLLAKDCHCI
B7: GLP-1-Fc-GDF15 fusion protein D14 (Fc fusion)
chain: B6 chain with I23V, A24Q
B8: GLP-1-Fc-GDF15 fusion protein D13 (Fc fusion)
chain: B6 chain with A24Q

Key:
[1] = target: the molecule itself; assay: SEC (size exclusion HPLC), self-association of the Fc into a homodimer
Protocol: (§1) In this example, the effects of introducing different mutations on the structural properties of Fc were tested, and the test results of some mutants are shown in Table 5. Test steps include:
(§2) Molecular cloning method was used to insert Fc nucleic acid sequence into mammalian cell expression vector, and ExpiCHO Fectamine™ CHO Transfection Kit (ThermoFisher Scientific) was used for transient transfection and expression in CHO-S cells; after purification by Protein A column, the target protein was obtained, and the target protein was analyzed by size exclusion high performance liquid chromatography (SEC). The main principle of SEC analysis is based on the molecular weight and three-dimensional structure of the analyte (such as protein). Generally, analytes with larger molecular weights will pass through the chromatographic column more quickly, so they have a shorter column retention time. On the contrary, analytes with smaller molecular weights have longer retention times. So SEC can be used to analyze the aggregation of protein molecules.

[2] = target: the molecule itself; assay: SEC (size exclusion HPLC), self-association of the Fc
Protocol: as §1, §2

[3] = target: glucagon-like peptide-1 receptor (UniProt P43220 24-463, limits assumed); assay: cell-based or functional assay

Binder | GLP-1 activity (EC50, nM): intracellular cAMP in HEK293 cells with high GLP-1R expression [3] | also measured
B1 | – | binding result [1]: binds
B2 | – | binding result [1]: binds
B3 | – | binding result [2]: no binding
B4 | 0.084 nM | –
B5 | 0.1 nM | –
B6 | 0.118 nM | –
B7 | 0.183 nM | –
B8 | 0.124 nM | –
